Experimental findings from article PMC7348807 are described below.

Data set [1] deals with T1, thrombin (UniProt P00734;P00734 328-363;364-622). The data set is described as follows: kinetic exclusion assay (KinExA), two-population competitive fit; hypothetical second FA population (16%); the other 84% fixed at Kd 298 pM; PBS with 0.02% sodium azide and 1 mg/mL BSA; incubation 2 h (50 pM, 1 nM FA) or 6.5 h (10 pM FA); thrombin 5 pM to 1 uM; pH and temperature not stated. (In KinExA the mixture passes briefly over coated beads that capture the unbound partner.)

Data set [2] has as its target T1, thrombin. The data set is described as follows: kinetic exclusion assay (KinExA), n-curve analysis; 1:1 model; FA 10 pM, 50 pM, 1 nM; fitted FA activity ~47%; 1:1 fit deviates at high thrombin; PBS with 0.02% sodium azide and 1 mg/mL BSA; incubation 2 h (50 pM, 1 nM FA) or 6.5 h (10 pM FA); thrombin 5 pM to 1 uM; pH and temperature not stated.

On to AGTCCGTGGTAGGGCAGGTTGGGGTGACT (structured_DNA) [29-nt thrombin aptamer (Tasset et al.), fluorescent aptamer FA], for which the figures for the Kd in the data set with thrombin [1] and with thrombin [2] were 500 nM and 0.298 nM, respectively.

By Kd is commonly meant the equilibrium constant for the complex coming apart. A high value points to a looser complex.
